Article PMC11050165

Biological target: Haemophilus influenzae tellurite-resistance protein A (HiTehA) (Haemophilus influenzae) (UniProt P44741)
Assay: cryo-EM structure; single-particle cryo-EM at 200 kV (Glacios, Falcon 4) of purified HiTehA at 3.0 mg/mL in detergent micelles (DDM, GDN, LMNG or OG); C3 symmetry imposed; no binding protein used

stoichiometry N: 3
Substance: Haemophilus influenzae tellurite-resistance protein A (HiTehA) (from UniProt P44741 1-328) (natural protein)
